Molecular target: T1, his-tagged NCOA4 (383–522nd) recombinant protein, WT (human), Q13772
T1 chain: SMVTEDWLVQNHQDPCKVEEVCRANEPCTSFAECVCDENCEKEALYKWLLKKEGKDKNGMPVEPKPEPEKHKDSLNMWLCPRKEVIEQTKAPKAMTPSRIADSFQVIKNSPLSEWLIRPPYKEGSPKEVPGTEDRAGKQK
Experiment: nonreducing gel electrophoresis; purified his-tagged NCOA4 (383–522nd) WT or mutants on a nonreducing gel, with or without β-ME (10 mM) or DTT (5 mM); the reductants converted the dimer into monomers
Details: remark: other sources report otherwise

stoichiometry N: 2
B1: his-tagged NCOA4 (383–522nd) recombinant protein, WT, Q13772-1 383-522 (domain or fragment)
chain: SMVTEDWLVQNHQDPCKVEEVCRANEPCTSFAECVCDENCEKEALYKWLLKKEGKDKNGMPVEPKPEPEKHKDSLNMWLCPRKEVIEQTKAPKAMTPSRIADSFQVIKNSPLSEWLIRPPYKEGSPKEVPGTEDRAGKQK
